From patent US8900593B2 (Indiana University Research and Technology Corporation, priority 2007, dated 2014)
Like-named read-outs stand apart in the source and are kept apart here. Where a SMILES comes first, the peptide text is derived from it. Bridges are numbered along the chain shown (N, C = ends). Where no end group is shown, it is not given here. [ ]: non-standard residue; d: D form. DMIA = not defined here; PEG = not defined here; Aib = CC(C)(N)C(=O)O

Experiments:
glucagon receptor = target: T1, glucagon receptor (Homo sapiens, UniProt P47871); assay: Functional assay-cAMP synthesis, luciferase reporter in HEK293 cells co-transfected with glucagon receptor; assay type: cell-based; settings: for Glucagon Receptor Relative Potency (%): Table 11, relative to glucagon (SEQ ID NO: 1) = 100; for Parent w/PEG % Potency Relative to Native GR / Parent w/o PEG % Potency Relative to Native GR: Table 12; for Parent w/PEG % Potency Relative to Native GR: pegylated peptide; for Parent w/o PEG % Potency Relative to Native GR: peptide without PEG; for Percent Potency Relative to Native Ligand GRec: relative to native glucagon
T1 construct: expressed in transfected cells; host or cells: HEK293
T1 sequence (P47871 26-477): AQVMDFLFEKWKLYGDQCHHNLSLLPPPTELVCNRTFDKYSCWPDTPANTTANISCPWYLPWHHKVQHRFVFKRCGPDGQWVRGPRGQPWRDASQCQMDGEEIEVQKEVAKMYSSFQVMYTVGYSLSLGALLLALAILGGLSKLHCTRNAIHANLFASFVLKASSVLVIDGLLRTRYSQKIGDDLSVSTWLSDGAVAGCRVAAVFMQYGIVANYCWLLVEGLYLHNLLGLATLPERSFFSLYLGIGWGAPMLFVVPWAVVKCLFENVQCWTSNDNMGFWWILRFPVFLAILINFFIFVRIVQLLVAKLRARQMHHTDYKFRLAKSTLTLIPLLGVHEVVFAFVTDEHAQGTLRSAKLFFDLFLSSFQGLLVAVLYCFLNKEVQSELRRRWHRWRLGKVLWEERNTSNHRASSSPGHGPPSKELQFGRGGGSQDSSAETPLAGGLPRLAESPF

GLP-1 receptor = target: T2, GLP-1 receptor (Homo sapiens, UniProt P43220); assay: Functional assay-cAMP synthesis, luciferase reporter in HEK293 cells co-transfected with GLP-1 receptor; assay type: cell-based; settings: for GLP 1 Receptor Relative Potency (%): Table 11, relative to GLP-1-VKGG30 (SEQ ID NO: 527) = 100; for Percent Potency Relative to Native Ligand GLP-1Rec: relative to native GLP-1
T2 construct: expressed in transfected cells; host or cells: HEK293
T2 sequence (P43220 24-463, species assumed): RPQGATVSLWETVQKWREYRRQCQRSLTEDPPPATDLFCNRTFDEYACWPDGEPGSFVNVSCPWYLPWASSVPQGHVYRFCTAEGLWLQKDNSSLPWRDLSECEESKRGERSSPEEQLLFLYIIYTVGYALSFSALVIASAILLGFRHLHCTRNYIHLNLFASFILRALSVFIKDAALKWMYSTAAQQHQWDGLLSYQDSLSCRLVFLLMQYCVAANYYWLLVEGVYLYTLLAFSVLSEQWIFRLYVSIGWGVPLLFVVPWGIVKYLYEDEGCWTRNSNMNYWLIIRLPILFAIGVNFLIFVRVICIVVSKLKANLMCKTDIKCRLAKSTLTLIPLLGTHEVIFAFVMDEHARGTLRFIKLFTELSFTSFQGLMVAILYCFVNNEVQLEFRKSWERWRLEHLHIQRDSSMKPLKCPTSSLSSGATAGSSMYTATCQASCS

[1] = Glucagon Receptor EC50(nM), Table 10, GLP-1 17-26 glucagon analogs

| Molecule | EC50 (GLP-1 receptor) [nM] | Parent w/PEG % Potency Relative to Native GR (glucagon receptor) [%] | Parent w/o PEG % Potency Relative to Native GR (glucagon receptor) [%] | Parent w/PEG % Potency Relative to Native GLP-1R (GLP-1 receptor) [%] | Parent w/o PEG % Potency Relative to Native GLP-1R (GLP-1 receptor) [%] | further results |
| --- | --- | --- | --- | --- | --- | --- |
| CC[C@H](C)[C@H](NC(=O)[C@H](Cc1ccccc1)NC(=O)[C@H](CCC(=O)O)NC(=O)[C@H](CCCCN)NC(=O)[C@H](C)NC(=O)[C@H](C)NC(=O)[C@H](CCC(N)=O)NC(=O)[C@H](CCC(=O)O)NC(=O)[C@H](CC(=O)O)NC(=O)[C@H](CC(C)C)NC(=O)[C@H](Cc1ccc(O)cc1)NC(=O)[C@H](CCCCN)NC(=O)[C@H](CO)NC(=O)[C@H](Cc1ccc(O)cc1)NC(=O)[C@H](CC(=O)O)NC(=O)[C@H](CO)NC(=O)[C@@H](NC(=O)[C@H](Cc1ccccc1)NC(=O)[C@@H](NC(=O)CNC(=O)[C@H](CCC(N)=O)NC(=O)[C@H](CO)NC(=O)[C@@H](N)Cc1c[nH]cn1)[C@@H](C)O)[C@@H](C)O)C(=O)N[C@H]1CCC(=O)NCCCC[C@@H](C(=O)NCC(N)=O)NC(=O)[C@H](C(C)C)NC(=O)[C@H](CC(C)C)NC(=O)[C@H](Cc2c[nH]c3ccccc23)NC1=O [E16 GLP(17-29)-NH2 E24, K28 Lactam] (H-HSQGTFTSDYSKYLDEQAAKEFIEWLVKG-NH2; lactam 24-28; N-terminus assumed) | 0.007 |  |  |  |  | EC50 (glucagon receptor; [1]): 0.16 nM |
| HSQGTFTSDYSKYLDSRRAQDFVQWLVKGGPSSGAPPPS-NH2 [-VKGG^30 PSSGAPPPS (SEQ ID NO: 524)] | 0.21 |  |  |  |  | EC50 (glucagon receptor): 1.16 nM; Glucagon Receptor Relative Potency (%) (glucagon receptor): 7%; GLP 1 Receptor Relative Potency (%) (GLP-1 receptor): 12% |
| CSCC[C@H](NC(=O)[C@H](CC(C)C)NC(=O)[C@H](Cc1c[nH]c2ccccc12)NC(=O)[C@H](CCC(N)=O)NC(=O)[C@@H](NC(=O)[C@H](Cc1ccccc1)NC(=O)[C@H](CC(=O)O)NC(=O)[C@H](CCC(N)=O)NC(=O)[C@H](C)NC(=O)[C@H](CCCNC(=N)N)NC(=O)[C@H](CCCNC(=N)N)NC(=O)[C@H](CO)NC(=O)[C@H](CC(=O)O)NC(=O)[C@H](CC(C)C)NC(=O)[C@H](Cc1ccc(O)cc1)NC(=O)[C@H](CCCCN)NC(=O)[C@H](CO)NC(=O)[C@H](Cc1ccc(O)cc1)NC(=O)[C@H](CC(=O)O)NC(=O)[C@H](CO)NC(=O)[C@@H](NC(=O)[C@H](Cc1ccccc1)NC(=O)[C@@H](NC(=O)CNC(=O)[C@H](CCC(N)=O)NC(=O)[C@H](CO)NC(=O)[C@@H](N)Cc1c[nH]cn1)[C@@H](C)O)[C@@H](C)O)C(C)C)C(=O)N[C@@H](CCCCN)C(=O)NCC(=O)NCC(=O)N1CCC[C@H]1C(=O)N[C@@H](CO)C(=O)N[C@@H](CO)C(=O)NCC(=O)N[C@@H](C)C(=O)N1CCC[C@H]1C(=O)N1CCC[C@H]1C(=O)N1CCC[C@H]1C(=O)N[C@@H](CO)C(N)=O [-MKGG^30 PSSGAPPPS (SEQ ID NO: 523)] | 0.8 |  |  |  |  | EC50 (glucagon receptor): 0.61 nM; Glucagon Receptor Relative Potency (%) (glucagon receptor): 14%; GLP 1 Receptor Relative Potency (%) (GLP-1 receptor): 3% |
| HX2QGT FTSDY SKYLD ERRAK DFVC*W LMNTa (H[Aib]QGTFTSDYSKYLDERRAKDFVCWLMNT-NH2; lactam (positions not given here); also: optional PEG on Cys24) [X2=AIB; C* is Cys or Cys attached to PEG] |  | 15.8 | 108.3 | 31.0 | 96.9 |  |
| X1SQGT FTSDY SKYLD ERRAK DFVC*W LMNGG PSSGA PPPSa ([DMIA]SQGTFTSDYSKYLDERRAKDFVCWLMNGGPSSGAPPPS-NH2; lactam (positions not given here); not fully specified; reading uncertain) [X1=DMIA; C* is Cys or Cys attached to PEG] |  | 12.6 | 116.0 | 11.3 | 78.3 |  |
| HSQGTFTSDYSKYLDEQAAKEFIEWLVKG-NH2 [E16 GLP(17-29)-NH2 E24, K28] | 0.007 |  |  |  |  | EC50 (glucagon receptor; [1]): 0.23 nM |
| HSQGTFTSDYSKYLDERRAKDFVQW LMNTa [E16, K20 Gluc-NH2] (HSQGTFTSDYSKYLDERRAKDFVQWLMNT-NH2) |  |  |  |  |  | Percent Potency Relative to Native Ligand GRec (glucagon receptor; Table 5): 130.1%; Percent Potency Relative to Native Ligand GRec (glucagon receptor; Table 9, E16/lactam analogs): 130.1%; Percent Potency Relative to Native Ligand GLP-1Rec (GLP-1 receptor; Table 5): 41.5%; Percent Potency Relative to Native Ligand GLP-1Rec (GLP-1 receptor; Table 9, E16/lactam analogs): 41.5% |
| HX2QGT FTSDYSKYLDEQAAKEFIAWLMNGGPSSGAPPPSC*a (H[Aib]QGTFTSDYSKYLDEQAAKEFIAWLMNGGPSSGAPPPSC-NH2; also: optional PEG on Cys40) [X2=AIB; C* is Cys or Cys attached to PEG] |  | 0.3 | 2.2 |  |  | Parent w/PEG % Potency Relative to Native GLP-1R (GLP-1 receptor; Table 12, pegylated peptide): 68.8%; Parent w/o PEG % Potency Relative to Native GLP-1R (GLP-1 receptor; Table 12, peptide without PEG): 359.1% |
| HX2QGT FTSDYSKYLDEQAAKEFIAWLMNGGPSSGAPPPSC*a (H[Aib]QGTFTSDYSKYLDEQAAKEFIAWLMNGGPSSGAPPPSC-NH2; lactam (positions not given here); also: optional PEG on Cys40) [X2=AIB; C* is Cys or Cys attached to PEG] |  | 3.2 | 14.2 | 63.6 | 169.6 |  |
| HSQGT FTSDYSKYLD EQAAK EFIC*W LMNTa (HSQGTFTSDYSKYLDEQAAKEFIC(PEG)WLMNT-NH2; reading uncertain) [Chimera Cys24 (SEQ ID NO: 518), C* is Cys attached to PEG in the tested form] |  | 19.8 |  |  |  | Parent w/PEG % Potency Relative to Native GLP-1R (GLP-1 receptor; Table 12, pegylated peptide): 29.3% |
| HSQGTFTSDYSKYLDEQAAKEFIAWLVKG-NH2 [E16 GLP(17-29)-NH2, HSQGTFTSDYSKYLDEQAAKEFIAW LVKGa] | 0.01 |  |  |  |  | EC50 (glucagon receptor; [1]): 0.46 nM |
| HX2QGT FTSDY SKYLD EQAAK EFIC*W LMNTa |  | 9.2 | 114.2 | 38.0 | 230.4 |  |
| HX2QGT FTSDY SKYLD EQAAK EFIC*W LMNGG PSSGA PPPSa (H[Aib]QGTFTSDYSKYLDEQAAKEFICWLMNGGPSSGAPPPS-NH2; lactam (positions not given here); also: optional PEG on Cys24) [X2=AIB; C* is Cys or Cys attached to PEG] |  | 1.4 | 25.2 | 96.4 | 381.5 |  |
